Measured values published in patent publication US6008019A, “Plasminogen activator from saliva of the vampire bat” (Schering Aktiengesellschaft, priority 1989, dated 1999).

How the values were obtained:
[1] = substrate: N=C(N)NCCC[C@H](NC(=O)CNC(=O)[C@@H]1CCC(=O)N1)C(=O)Nc1ccc([N+](=O)[O-])cc1; experiment: Km determination of amidolytic chromogenic substrates with t-PA; assay type: biochemical; conditions: other: t-PA, 3 units per hole, 100 mM Tris pH 8.0/100 mM NaCl/0.01% Tween 80, 37° C., Lineweaver-Burk plot
Experimental: (§1) In a 96-hole plate, respectively 90 μl of 100 mM Tris pH 8.0/100 mM NaCl/0.01% "Tween" 80 and 50 μl of the corresponding chromogenic substrate (all from Kabi Vitrum, Stockholm, Sweden) in the final concentrations of 0.03/0.06/0.1/0.3/0.6 and 1 mM are incubated with 10 μl (3 units per hole) of the corresponding plasminogen activator at 37° C., and the thus-released p-nitroaniline is determined photometrically at 405 nm at various points in time between 0-7 hours. The resultant data are evaluated with the aid of a Lineweaver-Burk plot, and the Km value is determined (Segel, I. H., Enzyme Kinetics, John Wiley and Sons, New York). The following chromogenic substrates were utilized:

[2] = substrate: CC[C@@H](C)[C@@H](N)C(=O)N1CCC[C@H]1C(=O)N[C@@H](CCCNC(=N)N)C(=O)Nc1ccc([N+](=O)[O-])cc1; experiment: Km determination of amidolytic chromogenic substrates with v-PA α1; assay type: biochemical, Desmodus rotundus; conditions: other: v-PA α1, 3 units per hole, 100 mM Tris pH 8.0/100 mM NaCl/0.01% Tween 80, 37° C., Lineweaver-Burk plot
Experimental: as §1

[3] = substrate: N=C(N)NCCC[C@H](NC(=O)CNC(=O)[C@@H]1CCC(=O)N1)C(=O)Nc1ccc([N+](=O)[O-])cc1; experiment: as above; assay type: biochemical, Desmodus rotundus; conditions: other: v-PA α1, 3 units per hole, 100 mM Tris pH 8.0/100 mM NaCl/0.01% Tween 80, 37° C., Lineweaver-Burk plot
Experimental: as §1

[4] = substrate: CC[C@@H](C)[C@@H](N)C(=O)N1CCC[C@H]1C(=O)N[C@@H](CCCNC(=N)N)C(=O)Nc1ccc([N+](=O)[O-])cc1; experiment: Km determination of amidolytic chromogenic substrates with v-PA β; assay type: biochemical, Desmodus rotundus; conditions: other: v-PA β, 3 units per hole, 100 mM Tris pH 8.0/100 mM NaCl/0.01% Tween 80, 37° C., Lineweaver-Burk plot
Experimental: as §1

[5] = substrate: N=C(N)NCCC[C@H](NC(=O)CNC(=O)[C@@H]1CCC(=O)N1)C(=O)Nc1ccc([N+](=O)[O-])cc1; experiment: as above; assay type: biochemical, Desmodus rotundus; conditions: other: v-PA β, 3 units per hole, 100 mM Tris pH 8.0/100 mM NaCl/0.01% Tween 80, 37° C., Lineweaver-Burk plot
Experimental: as §1

B1: t-PA (tissue-type plasminogen activator) (Homo sapiens) (protein)
chain: SYQVICRDEKTQMIYQQHQSWLRPVLRSNRVEYCWCNSGRAQCHSVPVKSCSEPRCFNGGTCQQALYFSDFVCQCPEGFAGKCCEIDTRATCYEDQGISYRGTWSTAESGAECTNWNSSALAQKPYSGRRPDAIRLGLGNHNYCRNPDRDSKPWCYVFKAGKYSSEFCSTPACSEGNSDCYFGNGSAYRGTHSLTESGASCLPWNSMILIGKVYTAQNPSAQALGLGKHNYCRNPDGDAKPWCHVLKNRRLTWEYCDVPSCSTCGLRQYSQPQFRIKGGLFADIASHPWQAAIFAKHRRSPGERFLCGGILISSCWILSAAHCFQERFPPHHLTVILGRTYRVVPGEEEQKFEVEKYIVHKEFDDDTYDNDIALLQLKSDSSRCAQESSVVRTVCLPPADLQLPDWTECELSGYGKHEALSPFYSERLKEAHVRLYPSSRCTSQHLLNRTVTDNMLCAGDTRSGGPQANLHDACQGDSGGPLVCLNDGRMTLVGIISWGLGCGQKDVPGVYTKVTNYLDWIRDNMRP
Km [1]: 2000 µM

B2: Desmodus rotundus saliva plasminogen activator v-PA α1 (Desmodus rotundus) (protein)
chain: AYGVACKDEITQMTYRRQESWLRPEVRSKRVEHCQCDRGQARCHTVPVNSCSEPRCFNGGTCWQAVYFSDFVCQCPAGYTGKRCEVDTRATCYEGQGVTYRGTWSTAESRVECINWNSSLLTRRTYNGRMPDAFNLGLGNHNYCRNPNGAPKPWCYVIKAGKFTSESCSVPVCSKATCGLRKYKEPQLHSTGGLFTDITSHPWQAAIFAQNRRSSGERFLCGGILISSCWVLTAAHCFQESYLPDQLKVVLGRTYRVKPGEEEQTFKVKKYIVHKEFDDDTYNNDIALLQLKSDSPQCAQESDSVRAICLPEANLQLPDWTECELSGYGKHKSSSPFYSEQLKEGHVRLYPSSRCAPKFLFNKTVTNNMLCAGDTRSGEIYPNVHDACQGDSGGPLVCMNDNHMTLLGIISWGVGCGEKDVPGVYTKVTNYLGWIRDNMHL
notes: from tissue
Km [2]: 1000 µM | Km [3]: 2000 µM

B3: Desmodus rotundus saliva plasminogen activator v-PA β (Desmodus rotundus) (protein)
chain: AYGGCSELRCFNGGTCWQAASFSDFVCQCPKGYTGKQCEVDTHATCYKDQGVTYRGTWSTSESGAQCINWNSNLLTRRTYNGRRSDAITLGLGNHNYCRNPDNNSKPWCYVIKASKFILEFCSVPVCSKATCGLRKYKEPQLHSTGGLFTDITSHPWQAAIFAQNRRSSGERFLCGGILISSCWVLTAAHCFQERYPPQHLRVVLGRTYRVKPGKEEQTFEVEKCIIHEEFDDDTYNNDIALLQLKSGSPQCAQESDSVRAICLPEANLQLPDWTECELSGYGKHKSSSPFYSEQLKEGHVRLYPSSRCTSKFLFNKTVTNNMLCAGDTRSGEIYPNVHDACQGDSGGPLVCMNDNHMTLLGIISWGVGCGEKDIPGVYTKVTNYLGWIRDNMRP
notes: from tissue
Km [4]: 2000 µM | Km [5]: 2000 µM
